Substitutions are numbered along the chain they refer to.
T1: rat PAI-1 (rat, UniProt P20961 24-402)
T1 sequence: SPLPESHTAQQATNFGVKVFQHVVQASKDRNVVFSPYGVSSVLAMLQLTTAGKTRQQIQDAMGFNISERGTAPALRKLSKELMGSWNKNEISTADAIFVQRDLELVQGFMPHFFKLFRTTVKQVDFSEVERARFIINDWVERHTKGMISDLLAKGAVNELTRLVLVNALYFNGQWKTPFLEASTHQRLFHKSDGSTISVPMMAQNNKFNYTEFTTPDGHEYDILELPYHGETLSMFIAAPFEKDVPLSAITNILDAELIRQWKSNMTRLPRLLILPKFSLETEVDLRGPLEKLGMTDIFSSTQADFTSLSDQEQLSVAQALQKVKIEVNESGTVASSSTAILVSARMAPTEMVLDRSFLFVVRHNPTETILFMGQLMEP

T2: mouse PAI-1 (mouse, UniProt P22777 24-401)
T2 sequence: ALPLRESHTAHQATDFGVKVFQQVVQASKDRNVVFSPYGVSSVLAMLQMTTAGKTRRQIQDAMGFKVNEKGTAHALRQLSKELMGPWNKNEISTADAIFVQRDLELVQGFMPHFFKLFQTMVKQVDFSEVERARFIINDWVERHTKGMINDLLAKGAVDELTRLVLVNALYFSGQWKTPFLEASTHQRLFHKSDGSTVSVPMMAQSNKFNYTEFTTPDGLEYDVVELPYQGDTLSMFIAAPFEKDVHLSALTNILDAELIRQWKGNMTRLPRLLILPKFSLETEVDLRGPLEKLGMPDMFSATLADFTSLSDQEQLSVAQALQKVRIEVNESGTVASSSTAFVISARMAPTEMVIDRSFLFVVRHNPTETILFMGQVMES

T3: rabbit PAI-1 (rabbit)
T3 chain: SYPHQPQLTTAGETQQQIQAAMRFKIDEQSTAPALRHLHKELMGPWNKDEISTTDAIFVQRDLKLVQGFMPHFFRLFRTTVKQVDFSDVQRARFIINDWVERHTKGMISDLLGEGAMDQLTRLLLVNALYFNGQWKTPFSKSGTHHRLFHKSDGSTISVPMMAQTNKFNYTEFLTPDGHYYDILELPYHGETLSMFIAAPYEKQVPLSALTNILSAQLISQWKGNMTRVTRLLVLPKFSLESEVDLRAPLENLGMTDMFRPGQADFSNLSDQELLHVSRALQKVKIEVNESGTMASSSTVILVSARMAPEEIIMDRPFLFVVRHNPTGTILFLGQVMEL

T4: PAI-3 (UniProt P05154 26-406, limits assumed)
T4 sequence (looked up): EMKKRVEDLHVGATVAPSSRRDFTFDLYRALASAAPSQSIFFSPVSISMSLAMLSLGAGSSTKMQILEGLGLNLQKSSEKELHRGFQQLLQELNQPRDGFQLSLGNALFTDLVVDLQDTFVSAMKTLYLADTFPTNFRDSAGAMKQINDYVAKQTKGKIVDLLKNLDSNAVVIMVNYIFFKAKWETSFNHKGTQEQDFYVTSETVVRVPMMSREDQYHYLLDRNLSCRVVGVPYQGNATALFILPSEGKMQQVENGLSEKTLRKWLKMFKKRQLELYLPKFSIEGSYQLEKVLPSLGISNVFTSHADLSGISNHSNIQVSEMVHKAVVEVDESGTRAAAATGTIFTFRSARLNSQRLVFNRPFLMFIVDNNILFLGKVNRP

T5: α1-antichymotrypsin (UniProt P01011 24-423)
T5 sequence (looked up): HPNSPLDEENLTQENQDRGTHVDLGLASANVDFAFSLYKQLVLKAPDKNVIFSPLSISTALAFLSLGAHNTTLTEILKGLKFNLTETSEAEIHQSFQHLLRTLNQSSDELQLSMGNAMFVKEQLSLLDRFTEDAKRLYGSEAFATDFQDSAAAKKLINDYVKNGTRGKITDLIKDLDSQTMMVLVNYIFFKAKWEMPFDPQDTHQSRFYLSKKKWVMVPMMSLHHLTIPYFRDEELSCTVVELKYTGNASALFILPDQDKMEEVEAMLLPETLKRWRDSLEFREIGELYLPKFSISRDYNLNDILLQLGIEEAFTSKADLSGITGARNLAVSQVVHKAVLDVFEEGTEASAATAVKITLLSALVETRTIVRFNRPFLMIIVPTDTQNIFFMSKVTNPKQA

T6: α2-antiplasmin (UniProt P08697 40-491, limits assumed)
T6 sequence (looked up): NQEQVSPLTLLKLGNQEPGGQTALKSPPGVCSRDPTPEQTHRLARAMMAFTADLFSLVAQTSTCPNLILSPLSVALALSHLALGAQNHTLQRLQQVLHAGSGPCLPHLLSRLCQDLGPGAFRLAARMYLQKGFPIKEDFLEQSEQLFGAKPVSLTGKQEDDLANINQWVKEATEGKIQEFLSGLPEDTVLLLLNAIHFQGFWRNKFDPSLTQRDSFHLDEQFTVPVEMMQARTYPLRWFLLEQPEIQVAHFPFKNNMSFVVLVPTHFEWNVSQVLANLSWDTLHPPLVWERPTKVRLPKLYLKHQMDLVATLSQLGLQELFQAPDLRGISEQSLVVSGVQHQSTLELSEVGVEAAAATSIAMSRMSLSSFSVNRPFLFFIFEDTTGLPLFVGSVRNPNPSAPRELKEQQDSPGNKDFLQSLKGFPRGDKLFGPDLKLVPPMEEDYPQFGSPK

B1: Antibody 20, IgG1, not germlined (antibody, V domains shown)
VH: QVQLQQSGAEVKKPGSSVKVSCKASGGTFSSYAISWVRQAPGQGLEWMGGIIPTFGTANYAQKFQGRVTITADESTSTAYMELSSLRSEDTAVYYCAREKRQWLEGHFDYWGRGTLVTVSS
VL: DIQMTQSPSTLSASVGDRVTITCRASEGIYHELAWYQQKPGKAPKLLIYRASSLASGVPSRFSGSRSGTEFTLTISSLQPDDFATYYCQQYSDYPLTFGGGTKVEIK
notes: whole IgG1; also called Ab 20
B2: Antibody 08, scFv (scFv, V domains shown)
VH: B1 VH with Q5V, K100R
VL: B1 VL with E32N, R50K, D93N
B3: Antibody 27, IgG1, not germlined (antibody, V domains shown)
VH: B1 VH with T28A, S85G, L116P
VL: B1 VL with T10F, V15I, E32N, V58A, R66G, E70D, D93N, V104L
notes: whole IgG1; also called Ab 27
B4: PICK167_A01-fgl IgG1 (CAT-1001) (antibody, V domains shown)
VH: B1 VH with Q5V, K100R
VL: DIQMTQSPSTLSASVGDRVTITCRASEGIYHNLAWYQQKPGKAPKLLIYKASSLASGVPSRFSGSRSGTEFTLTISSLQPDDFATYYCQQYSNYPLTFGGGTKVEIKR
notes: fully germlined variant, made as an IgG1 only; also called PICK67A01-fgl

Tests used:
[1] = target: T7, human PAI-1, active, wild-type, non-glycosylated (E. coli-derived) (human, UniProt P05121 24-402); test: cell-based or functional assay
cynomolgus PAI-1 [2] = target: T8, cynomolgus PAI-1 (cynomolgus, UniProt P05121 24-402 (human entry), limits assumed); test: cell-based or functional assay
rat PAI-1 [3] = target: T1, rat PAI-1; test: cell-based or functional assay
mouse PAI-1 [4] = target: T2, mouse PAI-1; test: cell-based or functional assay
[5] = target: glycosylated active human PAI-1 produced by CHO cells (human, UniProt P05121 24-402, N-glycosylated (CHO-produced)); test: cell-based or functional assay
[6] = target: T7, human PAI-1, active, wild-type, …; test: cell-based or functional assay; remark: listed apart in the source
rat PAI-1 [7] = target: T1, rat PAI-1; test: cell-based or functional assay; remark: listed apart in the source
mouse PAI-1 [8] = target: T2, mouse PAI-1; test: cell-based or functional assay; remark: listed apart in the source
rabbit PAI-1 = target: T3, rabbit PAI-1; test: competition ELISA (DELFIA), IgG coated, competitor titrated against biotinylated active human PAI-1
latent human PAI-1 = target: T9, latent human PAI-1 (human, UniProt P05121 24-402); test: as above
T9 construct: also called latent PAI-1

rat PAI-1 [9] = target: T1, rat PAI-1; test: as above
mouse PAI-1 [10] = target: T2, mouse PAI-1; test: as above
[11] = target: T7, human PAI-1, active, wild-type, …; test: cell-based or functional assay; remark: listed apart in the source
cynomolgus PAI-1 [12] = target: T8, cynomolgus PAI-1; test: cell-based or functional assay; remark: listed apart in the source
mouse PAI-1 [13] = target: T2, mouse PAI-1; test: cell-based or functional assay; remark: listed apart in the source
rat PAI-1 [14] = target: T1, rat PAI-1; test: cell-based or functional assay; remark: listed apart in the source
[15] = target: T7, human PAI-1, active, wild-type, …; test: SPR BIAcore, CAT-1001 amino-linked to CM3 chip, human wild-type PAI-1 as analyte, 1:1 Langmuir
PAI-2 = PAI-2 (UniProt P05120 1-415, limits assumed); test: competition ELISA (DELFIA): PICK167_A01-fgl IgG1 (CAT-1001) coated on the plate, biotinylated human PAI-1, titration of the unlabelled test antigen
PAI-3 = target: T4, PAI-3; test: as above
antithrombin III = antithrombin III (UniProt P01008 33-464); test: as above
α1-antitrypsin = target: T10, α1-antitrypsin (UniProt P01009 25-418); test: as above
T10 construct: also called alpha-1-antitrypsin

α1-antichymotrypsin = target: T5, α1-antichymotrypsin; test: as above
α2-antiplasmin = target: T6, α2-antiplasmin; test: as above

| Binder | IC50 chromogenic [1] [nM] | IC50 chromogenic (cynomolgus PAI-1 [2]) [nM] | IC50 chromogenic (rat PAI-1 [3]) [nM] | IC50 ratio rat/human (rat PAI-1 [3]) | IC50 chromogenic (mouse PAI-1 [4]) [nM] | IC50 ratio mouse/human (mouse PAI-1 [4]) | IC50 chromogenic, hu glyco [5] [nM] | IC50 HT-1080 Exo PAI-1 [6] [nM] | IC50 HT-1080 Exo PAI-1 (rat PAI-1 [7]) [nM] | IC50 HT-1080 Exo PAI-1 (mouse PAI-1 [8]) [nM] | IC50 ratio rabbit/wt (rabbit PAI-1) | IC50 ratio latent/wt (latent human PAI-1) | IC50 ratio rat/wt (rat PAI-1 [9]) | IC50 ratio mouse/wt (mouse PAI-1 [10]) | further results |
| --- | --- | --- | --- | --- | --- | --- | --- | --- | --- | --- | --- | --- | --- | --- | --- |
| B1 | 1.6 | 0.8 | 2.9 | 1.8 | 1.4 | 0.9 | 1.3 | 7.3 | 16.2 | 5.9 | 9.1 | 7.5 | 2.3 | 7.6 | IC50 ratio cyno/human (cynomolgus PAI-1 [2]): 0.5 |
| B2 | 3.2 | 1 | 3 | – | – | – | – | 23.7 | 50.1 | 26.2 | – | – | – | – | IC50 chromogenic (FIG. 2a) [11]: 3.6 nM; IC50 chromogenic (FIG. 2b) (cynomolgus PAI-1 [12]): 0.8 nM; IC50 chromogenic (FIG. 2d) (mouse PAI-1 [13]): 2.6 nM |
| B3 | 4.9 | – | 26.5 | 5.4 | 16.1 | 3.3 | 2.6 | 10.9 | 16.1 | 7.8 | 85 | 6.8 | 1.2 | 6.1 | – |
| B4 | – | – | – | – | – | – | – | – | – | – | – | – | – | – | IC50, HT1080 plasminogen activation assay [11]: 13.2 nM; IC50, PAI-1:tPA functional assay [11]: 1.65 nM; pIC50, HT1080 plasminogen activation assay [11]: 7.87; IC50, PAI-1:tPA functional assay (cynomolgus PAI-1 [12]): 0.77 nM; IC50, HT1080 plasminogen activation assay (rat PAI-1 [14]): 22.8 nM; IC50, PAI-1:tPA functional assay (rat PAI-1 [14]): 3.07 nM; pIC50, HT1080 plasminogen activation assay (rat PAI-1 [14]): 7.64; Kd [15]: 0.016 nM; binding result (PAI-2): no binding (tested: log M about -6.3 (about 5e-7 M)); binding result (PAI-3): no binding (tested: log M about -6.3 (about 5e-7 M)); binding result (antithrombin III): no binding (tested: log M about -6.3 (about 5e-7 M)); binding result (α1-antitrypsin): no binding (tested: log M about -6.3 (about 5e-7 M)); binding result (α1-antichymotrypsin): no binding (tested: log M about -6.3 (about 5e-7 M)); binding result (α2-antiplasmin): no binding (tested: log M about -6.3 (about 5e-7 M)) |
